# Data published in the RNAGym collection of RNA variant scans (doi:10.1073/pnas.2313332121).
# This sample holds only a part of the variants without activity.
# B1: TPR 5TU (parent)
# chain: GGAUCUUCUCGAUCUAACAAAAAAGACAAAUCUGCCACAAAGCUUGAGAGCAUCUUCGGAUGCAGAGGCGGCAGCCUUCGGUGGCGCGAUAGCGCCAACGUUCUCAACUAUGACACGCAAAACGCGUGCUCCGUUGAAUGGAGUUUAUCAUG
# Variants of: B1
# Assay: polymerase ribozyme fitness, log enrichment relative to wild type (log ratio); higher = more active; in vitro selection for triplet polymerase activity
# In short: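 For each subunit of a heterodimeric triplet polymerase ribozyme, a mutant library was built by PCR and transcribed, then taken through a single in vitro selection round in triplicate. Selection involved annealing to a biotinylated primer, the partner subunit and triplets, incubation frozen at −7 °C, gel excision of extended constructs, capture on streptavidin beads and RT-PCR. Genotypes were retained after Illumina sequencing of inputs and outputs only with ≥10 input reads and ≥1 read in each output. Fitness is defined as the logarithm of a genotype's enrichment relative to wild-type enrichment, using inverse-variance-weighted averages across replicates, with the logarithm taken to base 2.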
row,Variant,polymerase ribozyme fitness (log ratio)
1,C10A U102G U139G A150U U151G,≤ -4.2
2,C10U A17G A28C G42A C85U A89G C93U U145G,≤ -4.2
3,U9G C14G A24G U55A U139A,≤ -4.2
4,C10U G25C G46C G88U C95U A97U A142C,≤ -4.2
5,G11U A24U G50A U56A A60G C87U G126A U146G,≤ -4.2
6,C10A C32G U139G,≤ -4.2
7,C10G G86A,-3.52
8,C10G C63G C79U C85G C99A A107G A121U G143A,≤ -4.2
9,C10G C79G,≤ -4.2
10,G11C,-1.36
11,G11A,-0.693
12,G11U,-0.242
13,C10G U13G C57U C85U G152C,≤ -4.2
14,U9C A28G C57A C96G U151C,≤ -4.2
15,C10G C18G A19C C87A A98U A115U G117U,≤ -4.2
16,U9C A37C A40G U53A C75U U77A A119U,≤ -4.2
17,G11C A26U C69U,≤ -4.2
18,G11U G74A C85A U90C G141A U148C,≤ -4.2
19,C10A U15G C57U G83C,≤ -4.2
20,U9G C14A C85U,-4.02
21,C10G A29U C95U C108A,≤ -4.2

row,Variant,polymerase ribozyme fitness (log ratio)
1,C10G U55A C57A U77G C87G,≤ -4.2
2,U9G C85U,-3.41
3,C10G A16G U53A U55A G65A G92A A98U G126A A138U U148G,-4.12
4,U9G A17C A22U A29G G50A G68A,≤ -4.2
5,C10A A20U A21C A49C C51U C79U A110G,≤ -4.2
6,C10G A49G G59A A60U G88U A97U,≤ -4.2
7,C10A A17C C35U G59A A122U U146A,≤ -4.2
8,U9G G65A G81U C95U,≤ -4.2
9,C10U A16U C18U G71C C108G,≤ -4.2
10,C10U C38A G70A C93U A97U C116G U148G,≤ -4.2
11,A12C A21G A122G G140U,-4.13
12,U9C C96U A110G,≤ -4.2
13,G11C A19C G70U G86A A89U A106G G136C,≤ -4.2
14,C10G A22U,-3.34
15,C10U U15G G58U A73G G83A A91C C95U U134C,≤ -4.2
16,C10U C93U G117A A137C,≤ -4.2
17,U9C C36A U45A A47C A49U A52G U55G G68U G80U G94U,≤ -4.2
18,G11C C36G U56A C57U G59A C96G,≤ -4.2
19,C10U A29U U53A C79G C85U C95G A107U,≤ -4.2
20,G11C A21G A28U C38U C87A G133C U144G A150C,≤ -4.2
21,C10A U31G G50A G58C C96A C116U,≤ -4.2

row,Variant,polymerase ribozyme fitness (log ratio)
1,C10G A37G C51G A107G U145C U148G,≤ -4.2
2,C10U A19U C35U C95U C99U,≤ -4.2
3,C10G C87A C93U,≤ -4.2
4,G11A A26C U33G C129A,≤ -4.2
5,G11C C76A,-1.78
6,C10G G65U G88C C105U C114A,≤ -4.2
7,C10U A40C G42C A49G G58U G83C G92A A107C G141C C149G,≤ -4.2
8,U9C G58A A98U,≤ -4.2
9,G11U C57U G58A U104G C105U,-3.72
10,U9C A52C U61A C96G C103G A142C,-4
11,U9G U53G C87U A113U C116A G140U,≤ -4.2
12,U9C A97G,-2.82
13,C10G C96U,-2.78
14,C10G C96G,-3.62
15,G11A G86U C93G,-1.46
16,G11U A21U A37G A52C C85U,-4.18
17,G11U C18G A21C U31C C57U A91G A113C G143U,≤ -4.2
18,G11C A40G U82A G94C G140U,≤ -4.2
19,C10U G48A G86A G88A C95A,≤ -4.2
20,C10G C87U,-3.38
21,G11U A30U C95U C99U,≤ -4.2

row,Variant,polymerase ribozyme fitness (log ratio)
1,C10U C96U,-2.51
2,C10U C96G,-3.82
3,C10U U33A A49G C76U G81A A98G U102C A137C G140U,≤ -4.2
4,C10U G83A,-3.44
5,C10U A60G,-2.5
6,G11U A29C C35U U45A A66G A91U,-3.98
7,U9A U78C G84U C99G A113U A115C G117U U135C U144A U148G,≤ -4.2
8,G11U A22G U45G U53G G58C C85U C87A C99G A106U G136A A142U,≤ -4.2
9,A12C A41U C75U A122C C125U,-3.38
10,G11C U56A C75U U145A,-1.61
11,C10G A22C C35U G86U A115G G124A,≤ -4.2
12,C10A A40U G67U G81C C149G,≤ -4.2
13,G11U A28C A49C C51A U53A C57U C95A G140A,≤ -4.2
14,C10G A52C,≤ -4.2
15,U9A G59A C87A,≤ -4.2
16,G11A A12U A52G U53C A91U,-4.08
17,U9G C27U U55A C85G C95G C123G G140U,≤ -4.2
18,A12C A119G,-0.0231
19,G11A C105U,-1.12
20,G11A A20U C54A C87G G100C U145A,≤ -4.2
21,C10A C76U,-3.95
